Our source for the % of cells in the 4D12G1-positive gate with ovalbumin, % of cells in the positive gate and percent of cells bound values is patent US20230078601A1 (CLEVELAND CLINIC FOUNDATION, published 2023).

The target of assay [1] is human Anti-Mullerian Hormone Receptor II (AMHR2), full length (human) (UniProt Q16671). Put plainly: flow cytometry competition on AMHR2-OVCAR8 cells: 4D12G1 mAb at 1 µg/ml with recombinant ovalbumin at 100 µg/ml; 91 % without competitor in FIG. 2E.
Assay [2] shares this target. Description: flow cytometry competition on AMHR2-OVCAR8 cells: 4D12G1 mAb at 1 µg/ml with recombinant ovalbumin at 10 µg/ml; 91 % without competitor in FIG. 2E.
The target is the same in assay [3]. Description: flow cytometry competition on AMHR2-OVCAR8 cells: 4D12G1 mAb at 1 µg/ml with recombinant ovalbumin at 1 µg/ml; 91 % without competitor in FIG. 2E.
Assay [4] has the same target. Description: flow cytometry on AMHR2-OVCAR8 cells, mAb at 1 µg/ml.
Assay [5] shares this target. Description: flow cytometry on primary HGSOC-2 cells.
The target is the same in assay [6]. Description: flow cytometry on primary HGSOC-1 cells.

Chain of human Anti-Mullerian Hormone Receptor II (AMHR2), full length (human) (Q16671 18-573 limits assumed): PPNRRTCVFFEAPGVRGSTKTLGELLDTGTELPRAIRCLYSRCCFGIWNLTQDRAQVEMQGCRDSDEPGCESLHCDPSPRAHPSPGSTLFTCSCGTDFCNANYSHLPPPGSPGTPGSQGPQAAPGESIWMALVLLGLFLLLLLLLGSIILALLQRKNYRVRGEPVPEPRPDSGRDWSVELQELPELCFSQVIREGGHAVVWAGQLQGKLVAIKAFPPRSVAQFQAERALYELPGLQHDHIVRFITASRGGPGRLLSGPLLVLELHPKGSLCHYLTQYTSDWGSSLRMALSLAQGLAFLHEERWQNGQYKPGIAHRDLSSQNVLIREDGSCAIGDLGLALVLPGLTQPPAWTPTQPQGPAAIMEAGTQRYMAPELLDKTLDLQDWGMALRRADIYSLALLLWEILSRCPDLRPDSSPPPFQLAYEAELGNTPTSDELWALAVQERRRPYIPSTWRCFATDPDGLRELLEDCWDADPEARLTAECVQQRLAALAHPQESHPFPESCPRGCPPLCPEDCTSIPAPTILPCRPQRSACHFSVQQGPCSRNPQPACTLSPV

Take “recombinant ovalbumin (from UniProt P01012 2-386)”: the % of cells in the 4D12G1-positive gate with ovalbumin at 100 µg/ml in assay [1] was found to be 88%. The % of cells in the 4D12G1-positive gate with ovalbumin at 10 µg/ml in assay [2] is 86%. In assay [3], the % of cells in the 4D12G1-positive gate with ovalbumin at 1 µg/ml came out at 88%.
In assay [4], isotype control mAb (antibody) displayed a % of cells in the positive gate of 1.1%. The figures for the percent of cells bound in assay [5] and in assay [6] were 1.1% and 1.5%, respectively.
